Reference: patent US20210063414A1, “METHODS FOR PREVENTING AND/OR TREATING BONE LOSS CONDITIONS BY MODULATING IRISIN” (Dana-Farber Cancer Institute, Inc., priority 2018, published 2021)

Assays:
Experiment in all cases: Crosslinking/co-immunoprecipitation/mass spectrometry (TMT quantitative proteomics) to identify irisin receptors
Assay type in all cases: binding
[1] = biological target: T1, MLO-Y4 cell surface proteins (Mus musculus, UniProt Q3U1J4); settings: co-precipitated protein Ddb1 (DDB1_MOUSE)
T1 construct: endogenous in cells; host or cells: MLO-Y4
Outline: (§1)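 Mouse MLO-Y4 cells were switched to serum-free FreeStyle medium for 4 h, chilled, then exposed to 10 nM His-tagged irisin (or adipsin as control) for 20 min. Cells were crosslinked with 1.5 mM DTSSP (30 min, ice), and bound proteins were pulled down on Ni-NTA and eluted with 250 mM imidazole. Eluates were separated by SDS-PAGE, trypsin-digested in gel, TMT 6-plex labelled and quantified by MS3-based LC-MS/MS on an Orbitrap Fusion Lumos.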

[2] = biological target: T2, MLO-Y4 cell surface proteins (Mus musculus, UniProt Q66L42); settings: co-precipitated protein Map3k10 (M3K10_MOUSE)
T2 construct: endogenous in cells; host or cells: MLO-Y4
Outline: as §1

[3] = biological target: T3, MLO-Y4 cell surface proteins (Mus musculus, UniProt Q8BJQ9); settings: co-precipitated protein Csgalnact1 (CGAT1_MOUSE)
T3 construct: endogenous in cells; host or cells: MLO-Y4
T3 sequence (Q8BJQ9 1-530): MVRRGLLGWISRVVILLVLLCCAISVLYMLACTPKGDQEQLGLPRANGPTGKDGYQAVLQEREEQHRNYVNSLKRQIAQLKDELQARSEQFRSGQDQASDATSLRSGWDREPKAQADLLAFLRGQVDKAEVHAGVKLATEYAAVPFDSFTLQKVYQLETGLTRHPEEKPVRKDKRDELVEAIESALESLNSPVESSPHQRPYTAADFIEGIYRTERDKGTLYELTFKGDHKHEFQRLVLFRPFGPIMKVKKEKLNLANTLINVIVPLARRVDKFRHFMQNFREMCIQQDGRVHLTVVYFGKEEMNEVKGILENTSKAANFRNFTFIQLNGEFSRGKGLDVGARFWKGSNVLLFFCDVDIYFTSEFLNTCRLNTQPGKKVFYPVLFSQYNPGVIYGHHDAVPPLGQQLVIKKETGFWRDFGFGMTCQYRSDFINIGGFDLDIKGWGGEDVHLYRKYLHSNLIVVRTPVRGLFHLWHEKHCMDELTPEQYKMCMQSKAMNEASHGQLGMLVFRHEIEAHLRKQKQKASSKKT
Outline: as §1

T1 sequence (Q3U1J4 whole entry): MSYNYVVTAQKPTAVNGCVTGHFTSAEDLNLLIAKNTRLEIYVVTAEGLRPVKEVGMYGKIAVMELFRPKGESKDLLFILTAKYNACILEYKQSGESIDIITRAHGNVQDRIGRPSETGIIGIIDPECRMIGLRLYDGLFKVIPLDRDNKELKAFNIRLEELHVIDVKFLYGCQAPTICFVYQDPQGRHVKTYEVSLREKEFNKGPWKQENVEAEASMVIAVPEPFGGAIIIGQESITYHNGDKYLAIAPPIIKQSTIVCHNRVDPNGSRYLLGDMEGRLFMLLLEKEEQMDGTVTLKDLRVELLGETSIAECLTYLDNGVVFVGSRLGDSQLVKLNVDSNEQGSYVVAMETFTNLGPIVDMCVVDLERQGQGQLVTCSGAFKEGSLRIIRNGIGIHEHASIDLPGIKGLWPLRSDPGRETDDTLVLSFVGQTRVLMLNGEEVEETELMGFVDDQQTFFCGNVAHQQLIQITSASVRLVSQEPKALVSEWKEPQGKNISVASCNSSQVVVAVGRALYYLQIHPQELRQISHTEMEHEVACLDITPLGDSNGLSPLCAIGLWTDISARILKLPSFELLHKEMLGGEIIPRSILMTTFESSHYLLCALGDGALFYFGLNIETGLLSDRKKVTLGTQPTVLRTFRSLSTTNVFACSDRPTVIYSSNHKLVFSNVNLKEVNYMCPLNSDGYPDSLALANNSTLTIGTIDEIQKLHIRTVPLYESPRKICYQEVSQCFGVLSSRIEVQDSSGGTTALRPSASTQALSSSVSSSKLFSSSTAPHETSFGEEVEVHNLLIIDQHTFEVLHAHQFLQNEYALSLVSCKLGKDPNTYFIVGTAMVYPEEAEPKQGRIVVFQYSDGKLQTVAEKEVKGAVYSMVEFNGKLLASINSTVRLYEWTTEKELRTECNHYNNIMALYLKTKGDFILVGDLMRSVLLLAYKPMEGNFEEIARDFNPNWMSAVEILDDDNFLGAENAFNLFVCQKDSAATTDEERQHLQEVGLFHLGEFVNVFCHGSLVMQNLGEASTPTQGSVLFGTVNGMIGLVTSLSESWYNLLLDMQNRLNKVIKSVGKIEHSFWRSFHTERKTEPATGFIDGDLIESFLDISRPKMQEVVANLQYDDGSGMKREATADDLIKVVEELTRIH
T2 sequence (Q66L42 whole entry): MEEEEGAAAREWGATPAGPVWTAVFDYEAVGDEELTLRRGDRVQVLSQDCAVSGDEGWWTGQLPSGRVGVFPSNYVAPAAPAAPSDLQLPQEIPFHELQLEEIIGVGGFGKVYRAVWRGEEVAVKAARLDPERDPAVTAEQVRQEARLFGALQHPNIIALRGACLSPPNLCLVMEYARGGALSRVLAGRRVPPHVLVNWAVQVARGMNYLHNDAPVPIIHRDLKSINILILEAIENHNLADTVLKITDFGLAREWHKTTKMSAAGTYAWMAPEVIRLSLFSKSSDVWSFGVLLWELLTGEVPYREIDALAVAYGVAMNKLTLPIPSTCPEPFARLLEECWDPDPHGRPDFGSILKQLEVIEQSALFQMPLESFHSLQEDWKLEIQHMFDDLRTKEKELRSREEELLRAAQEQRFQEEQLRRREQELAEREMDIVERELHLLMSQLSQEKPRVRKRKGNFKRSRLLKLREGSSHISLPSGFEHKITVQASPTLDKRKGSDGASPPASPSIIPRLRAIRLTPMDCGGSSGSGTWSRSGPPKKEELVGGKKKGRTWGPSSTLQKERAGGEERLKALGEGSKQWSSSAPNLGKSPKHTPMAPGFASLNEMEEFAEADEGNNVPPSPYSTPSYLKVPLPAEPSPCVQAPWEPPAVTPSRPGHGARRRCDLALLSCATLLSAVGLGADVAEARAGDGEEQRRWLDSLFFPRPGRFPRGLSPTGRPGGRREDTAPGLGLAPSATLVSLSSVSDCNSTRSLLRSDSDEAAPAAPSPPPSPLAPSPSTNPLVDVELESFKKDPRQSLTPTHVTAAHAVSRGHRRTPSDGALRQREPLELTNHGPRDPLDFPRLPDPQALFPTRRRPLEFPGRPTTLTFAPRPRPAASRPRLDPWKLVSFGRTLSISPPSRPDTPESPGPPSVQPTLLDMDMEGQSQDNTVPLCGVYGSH

B1: irisin: secreted cleaved form of FNDC5; recombinant human/mouse irisin with C-terminal his tag produced in HEK293 cells (protein)
chain: DSPSAPVNVTVRHLKANSAVVSWDVLEDEVVIGFAISQQKKDVRMLRFIQEVNTTTRSCALWDLEEDTEYIVHVQAISIQGQSPASEPVLFKTPREAEKMASKNKDEVTMKE
modifications: left off: small tags and cut ends
notes: secreted cleaved form of FNDC5; recombinant human/mouse irisin with C-terminal his tag produced in HEK293 cells
- TMT signal-to-noise ratio [1]: 149.943
- irisin/adipsin TMT signal-to-noise ratio [1]: 0.352
- TMT signal-to-noise ratio [2]: 3.455
- irisin/adipsin TMT signal-to-noise ratio [2]: 0.032
- TMT signal-to-noise ratio [3]: 1300.88
- irisin/adipsin TMT signal-to-noise ratio [3]: 0.536
